Measured values as given in patent US20190015483A1 (CSL BEHRING RECOMBINANT FACILITY, published 2019).

T1: recombinant Factor VIII (CSL627, rVIII-SingleChain) (Homo sapiens (Human), UniProt P00451 20-2351)
T1 construct: also called FVIII
T1 sequence: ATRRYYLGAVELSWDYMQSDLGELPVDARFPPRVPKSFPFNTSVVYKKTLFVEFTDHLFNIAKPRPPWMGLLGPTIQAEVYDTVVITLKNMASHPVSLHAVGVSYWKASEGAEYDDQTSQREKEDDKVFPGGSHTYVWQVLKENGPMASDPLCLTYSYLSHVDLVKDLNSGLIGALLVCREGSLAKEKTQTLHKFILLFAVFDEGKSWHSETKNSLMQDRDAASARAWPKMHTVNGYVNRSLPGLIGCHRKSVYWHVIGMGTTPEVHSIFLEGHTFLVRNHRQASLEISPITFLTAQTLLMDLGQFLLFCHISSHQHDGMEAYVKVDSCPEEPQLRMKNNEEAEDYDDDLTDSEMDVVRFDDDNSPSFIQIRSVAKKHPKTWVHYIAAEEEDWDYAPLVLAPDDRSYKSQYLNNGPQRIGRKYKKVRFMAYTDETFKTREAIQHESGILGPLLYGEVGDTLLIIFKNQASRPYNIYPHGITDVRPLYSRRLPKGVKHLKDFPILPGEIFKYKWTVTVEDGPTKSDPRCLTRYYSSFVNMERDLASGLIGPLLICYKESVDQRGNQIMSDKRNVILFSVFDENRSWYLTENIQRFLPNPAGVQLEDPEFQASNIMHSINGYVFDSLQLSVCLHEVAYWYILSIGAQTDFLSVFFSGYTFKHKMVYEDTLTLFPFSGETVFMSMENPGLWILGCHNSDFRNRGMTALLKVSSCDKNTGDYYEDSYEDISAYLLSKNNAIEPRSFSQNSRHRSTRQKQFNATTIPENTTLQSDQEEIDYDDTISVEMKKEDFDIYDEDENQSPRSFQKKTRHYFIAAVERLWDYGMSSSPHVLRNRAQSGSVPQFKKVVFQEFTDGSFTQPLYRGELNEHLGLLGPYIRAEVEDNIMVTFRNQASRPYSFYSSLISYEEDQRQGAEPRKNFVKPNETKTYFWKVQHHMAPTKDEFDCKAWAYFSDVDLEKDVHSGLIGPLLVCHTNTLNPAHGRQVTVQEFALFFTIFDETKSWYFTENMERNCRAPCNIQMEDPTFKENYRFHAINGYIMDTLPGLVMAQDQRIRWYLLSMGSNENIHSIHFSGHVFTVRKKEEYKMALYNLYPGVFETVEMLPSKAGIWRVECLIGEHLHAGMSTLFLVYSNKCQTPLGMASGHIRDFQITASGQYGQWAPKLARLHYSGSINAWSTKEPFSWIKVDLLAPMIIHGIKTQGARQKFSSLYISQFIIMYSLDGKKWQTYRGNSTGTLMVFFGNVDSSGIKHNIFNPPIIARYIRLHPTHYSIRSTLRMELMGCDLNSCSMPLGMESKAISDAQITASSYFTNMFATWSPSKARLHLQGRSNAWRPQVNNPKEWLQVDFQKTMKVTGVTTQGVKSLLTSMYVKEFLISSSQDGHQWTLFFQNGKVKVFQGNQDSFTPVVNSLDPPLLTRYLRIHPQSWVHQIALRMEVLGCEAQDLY


These binders were tested against T1, recombinant Factor VIII (CSL627, …) (assay: SPR, anti-His capture, FVIII injected, 37 C).
How it was run: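 First, mutants in culture medium are loaded to 40-150 RU on anti-His-coated chip; next, 1 nM FVIII is passed over for 5 min and washout followed for 5 min; finally, 1:1 fitting of double-referenced data gives rate constants.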

Row | Kd [nM] | koff [s⁻¹] | kon [M⁻¹ s⁻¹] | binding result | Binder
1 |  |  |  | no binding | Hu-vWF[764-1270]-8His S766W-S806W (other) SLWCRPPMVKLVCPADNLRAEGLECTKTCQNYDLECMSMGCVWGCLCPPGMVRHENRCVALERCPCFHQGKEYAPGETVKIGCNTCVCRDRKWNCTDHVCDATCSTIGMAHYLTFDGLKYLFPGECQYVLVQDYCGSNPGTFRILVGNKGCSHPSVKCKKRVTILVEGGEIELFDGEVNVKRPMKDETHFEVVESGRYIILLLGKALSVVWDRHLSISVVLKQTYQEKVCGLCGNFDGIQNNDLTSSNLQVEEDPVDFGNSWKVSSQCADTRKVPLDSSPATCHNNIMKQTMVDSSCRILTSDVFQDCNKLVDPEPYLDVCIYDTCSCESIGDCACFCDTIAAYAHVCAQHGKVVTWRTATLCPQSCEERNLRENGYECEWRYNSCAPACQVTCQHPEPLACPVQCVEGCHAHCPPGKILDELLQTCVDPEDCPVCEVAGRRFASGKKVTLNPSDPEHCQICHCDVVNLTCEACQEPGGLVVPPTDAPVSPTTLYVEDISEPPLHDFHHHHHHHH
2 | 0.106 | 0.000519 | 4.9e+06 |  | Hu-vWF[764-1270]-8His S766Y-P769A (other) SLYCRAPMVKLVCPADNLRAEGLECTKTCQNYDLECMSMGCVSGCLCPPGMVRHENRCVALERCPCFHQGKEYAPGETVKIGCNTCVCRDRKWNCTDHVCDATCSTIGMAHYLTFDGLKYLFPGECQYVLVQDYCGSNPGTFRILVGNKGCSHPSVKCKKRVTILVEGGEIELFDGEVNVKRPMKDETHFEVVESGRYIILLLGKALSVVWDRHLSISVVLKQTYQEKVCGLCGNFDGIQNNDLTSSNLQVEEDPVDFGNSWKVSSQCADTRKVPLDSSPATCHNNIMKQTMVDSSCRILTSDVFQDCNKLVDPEPYLDVCIYDTCSCESIGDCACFCDTIAAYAHVCAQHGKVVTWRTATLCPQSCEERNLRENGYECEWRYNSCAPACQVTCQHPEPLACPVQCVEGCHAHCPPGKILDELLQTCVDPEDCPVCEVAGRRFASGKKVTLNPSDPEHCQICHCDVVNLTCEACQEPGGLVVPPTDAPVSPTTLYVEDISEPPLHDFHHHHHHHH
3 |  |  |  | no binding | Hu-vWF[764-1270]-8His S766W-S806Y (other) SLWCRPPMVKLVCPADNLRAEGLECTKTCQNYDLECMSMGCVYGCLCPPGMVRHENRCVALERCPCFHQGKEYAPGETVKIGCNTCVCRDRKWNCTDHVCDATCSTIGMAHYLTFDGLKYLFPGECQYVLVQDYCGSNPGTFRILVGNKGCSHPSVKCKKRVTILVEGGEIELFDGEVNVKRPMKDETHFEVVESGRYIILLLGKALSVVWDRHLSISVVLKQTYQEKVCGLCGNFDGIQNNDLTSSNLQVEEDPVDFGNSWKVSSQCADTRKVPLDSSPATCHNNIMKQTMVDSSCRILTSDVFQDCNKLVDPEPYLDVCIYDTCSCESIGDCACFCDTIAAYAHVCAQHGKVVTWRTATLCPQSCEERNLRENGYECEWRYNSCAPACQVTCQHPEPLACPVQCVEGCHAHCPPGKILDELLQTCVDPEDCPVCEVAGRRFASGKKVTLNPSDPEHCQICHCDVVNLTCEACQEPGGLVVPPTDAPVSPTTLYVEDISEPPLHDFHHHHHHHH

More lines, now with the values behind:

Row | Binder | Kd [nM] | koff [s⁻¹] | kon [M⁻¹ s⁻¹] | binding result
4 | Hu-vWF[764-1270]-8His S766W-S806P (other) SLWCRPPMVKLVCPADNLRAEGLECTKTCQNYDLECMSMGCVPGCLCPPGMVRHENRCVALERCPCFHQGKEYAPGETVKIGCNTCVCRDRKWNCTDHVCDATCSTIGMAHYLTFDGLKYLFPGECQYVLVQDYCGSNPGTFRILVGNKGCSHPSVKCKKRVTILVEGGEIELFDGEVNVKRPMKDETHFEVVESGRYIILLLGKALSVVWDRHLSISVVLKQTYQEKVCGLCGNFDGIQNNDLTSSNLQVEEDPVDFGNSWKVSSQCADTRKVPLDSSPATCHNNIMKQTMVDSSCRILTSDVFQDCNKLVDPEPYLDVCIYDTCSCESIGDCACFCDTIAAYAHVCAQHGKVVTWRTATLCPQSCEERNLRENGYECEWRYNSCAPACQVTCQHPEPLACPVQCVEGCHAHCPPGKILDELLQTCVDPEDCPVCEVAGRRFASGKKVTLNPSDPEHCQICHCDVVNLTCEACQEPGGLVVPPTDAPVSPTTLYVEDISEPPLHDFHHHHHHHH | 0.133 | 0.000566 | 4.26e+06 | 
5 | Hu-vWF[764-1270]-8His S766W-S806V (other) SLWCRPPMVKLVCPADNLRAEGLECTKTCQNYDLECMSMGCVVGCLCPPGMVRHENRCVALERCPCFHQGKEYAPGETVKIGCNTCVCRDRKWNCTDHVCDATCSTIGMAHYLTFDGLKYLFPGECQYVLVQDYCGSNPGTFRILVGNKGCSHPSVKCKKRVTILVEGGEIELFDGEVNVKRPMKDETHFEVVESGRYIILLLGKALSVVWDRHLSISVVLKQTYQEKVCGLCGNFDGIQNNDLTSSNLQVEEDPVDFGNSWKVSSQCADTRKVPLDSSPATCHNNIMKQTMVDSSCRILTSDVFQDCNKLVDPEPYLDVCIYDTCSCESIGDCACFCDTIAAYAHVCAQHGKVVTWRTATLCPQSCEERNLRENGYECEWRYNSCAPACQVTCQHPEPLACPVQCVEGCHAHCPPGKILDELLQTCVDPEDCPVCEVAGRRFASGKKVTLNPSDPEHCQICHCDVVNLTCEACQEPGGLVVPPTDAPVSPTTLYVEDISEPPLHDFHHHHHHHH | 0.149 | 0.000619 | 4.17e+06 | 
6 | Hu-vWF[764-1270]-8His S766W-S806R (other) SLWCRPPMVKLVCPADNLRAEGLECTKTCQNYDLECMSMGCVRGCLCPPGMVRHENRCVALERCPCFHQGKEYAPGETVKIGCNTCVCRDRKWNCTDHVCDATCSTIGMAHYLTFDGLKYLFPGECQYVLVQDYCGSNPGTFRILVGNKGCSHPSVKCKKRVTILVEGGEIELFDGEVNVKRPMKDETHFEVVESGRYIILLLGKALSVVWDRHLSISVVLKQTYQEKVCGLCGNFDGIQNNDLTSSNLQVEEDPVDFGNSWKVSSQCADTRKVPLDSSPATCHNNIMKQTMVDSSCRILTSDVFQDCNKLVDPEPYLDVCIYDTCSCESIGDCACFCDTIAAYAHVCAQHGKVVTWRTATLCPQSCEERNLRENGYECEWRYNSCAPACQVTCQHPEPLACPVQCVEGCHAHCPPGKILDELLQTCVDPEDCPVCEVAGRRFASGKKVTLNPSDPEHCQICHCDVVNLTCEACQEPGGLVVPPTDAPVSPTTLYVEDISEPPLHDFHHHHHHHH | 1.29 | 0.0107 | 8.28e+06 | 
7 | Hu-vWF[764-1270]-8His S766W-S806T (other) SLWCRPPMVKLVCPADNLRAEGLECTKTCQNYDLECMSMGCVTGCLCPPGMVRHENRCVALERCPCFHQGKEYAPGETVKIGCNTCVCRDRKWNCTDHVCDATCSTIGMAHYLTFDGLKYLFPGECQYVLVQDYCGSNPGTFRILVGNKGCSHPSVKCKKRVTILVEGGEIELFDGEVNVKRPMKDETHFEVVESGRYIILLLGKALSVVWDRHLSISVVLKQTYQEKVCGLCGNFDGIQNNDLTSSNLQVEEDPVDFGNSWKVSSQCADTRKVPLDSSPATCHNNIMKQTMVDSSCRILTSDVFQDCNKLVDPEPYLDVCIYDTCSCESIGDCACFCDTIAAYAHVCAQHGKVVTWRTATLCPQSCEERNLRENGYECEWRYNSCAPACQVTCQHPEPLACPVQCVEGCHAHCPPGKILDELLQTCVDPEDCPVCEVAGRRFASGKKVTLNPSDPEHCQICHCDVVNLTCEACQEPGGLVVPPTDAPVSPTTLYVEDISEPPLHDFHHHHHHHH | 0.125 | 0.000654 | 5.25e+06 | 
8 | Hu-vWF[764-1270]-8His S766W-S806Q (other) SLWCRPPMVKLVCPADNLRAEGLECTKTCQNYDLECMSMGCVQGCLCPPGMVRHENRCVALERCPCFHQGKEYAPGETVKIGCNTCVCRDRKWNCTDHVCDATCSTIGMAHYLTFDGLKYLFPGECQYVLVQDYCGSNPGTFRILVGNKGCSHPSVKCKKRVTILVEGGEIELFDGEVNVKRPMKDETHFEVVESGRYIILLLGKALSVVWDRHLSISVVLKQTYQEKVCGLCGNFDGIQNNDLTSSNLQVEEDPVDFGNSWKVSSQCADTRKVPLDSSPATCHNNIMKQTMVDSSCRILTSDVFQDCNKLVDPEPYLDVCIYDTCSCESIGDCACFCDTIAAYAHVCAQHGKVVTWRTATLCPQSCEERNLRENGYECEWRYNSCAPACQVTCQHPEPLACPVQCVEGCHAHCPPGKILDELLQTCVDPEDCPVCEVAGRRFASGKKVTLNPSDPEHCQICHCDVVNLTCEACQEPGGLVVPPTDAPVSPTTLYVEDISEPPLHDFHHHHHHHH | 0.407 | 0.00176 | 4.33e+06 | 
